Test results taken from paper PMC4128672.

Target: CDC42 (cell division cycle 42) (rat (endogenous in rat testis)) (UniProt Q8CFN2)
Experiment: proximity ligation; Duolink II in situ PLA on Bouin-fixed, paraffin-embedded rat testis sections; antigen retrieval in citrate buffer (10 mM, pH 6.0, 0.05% Tween 20); anti-ApoH goat polyclonal 2.5 ug/ml and anti-CDC42 rabbit polyclonal 5 ug/ml; probes anti-rabbit PLUS and anti-goat MINUS; controls with one primary antibody only

Chain of UniProt Q8CFN2 (Q8CFN2 whole entry): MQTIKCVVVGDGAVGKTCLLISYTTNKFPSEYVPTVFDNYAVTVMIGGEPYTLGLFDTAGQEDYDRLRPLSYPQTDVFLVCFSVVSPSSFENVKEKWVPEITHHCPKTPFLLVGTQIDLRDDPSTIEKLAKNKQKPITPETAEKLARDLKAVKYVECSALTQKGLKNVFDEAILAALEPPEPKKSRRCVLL

PLA signals per 0.25 mm^2 (PLA signals/0.25 mm^2): 312
Substance: APOH (apolipoprotein H) (from UniProt P26644 20-297) (natural protein)
